Data set [1] has as its target T1, AtoA/AtoD complex (butyrate-acetoacetate CoA transferase) (Cloacimonas acidaminivorans (SeqCode), UniProt B0VIH1+B0VIH2).
T1 construct: each subunit in pEXP-5-NT/TOPO, E. coli, mixed equimolar; by primers AtoA (M)ALDKRAM...ERVNTF, AtoD (M)VQIISA...VLAKEN
T1 sequence (B0VIH1 1-218): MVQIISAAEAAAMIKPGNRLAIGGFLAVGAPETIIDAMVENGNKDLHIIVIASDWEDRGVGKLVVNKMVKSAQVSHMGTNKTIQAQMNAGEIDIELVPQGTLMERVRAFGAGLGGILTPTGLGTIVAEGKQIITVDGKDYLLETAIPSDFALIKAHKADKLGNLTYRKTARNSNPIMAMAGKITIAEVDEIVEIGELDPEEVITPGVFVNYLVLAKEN
T1 sequence (B0VIH2 1-217): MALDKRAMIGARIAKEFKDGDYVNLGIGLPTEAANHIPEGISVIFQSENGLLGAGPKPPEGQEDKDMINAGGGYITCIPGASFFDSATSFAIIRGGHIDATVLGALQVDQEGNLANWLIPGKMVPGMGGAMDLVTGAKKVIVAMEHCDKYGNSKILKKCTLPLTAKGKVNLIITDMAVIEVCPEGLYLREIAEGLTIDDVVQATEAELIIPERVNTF
Briefly: CoA transferase assay, acetoacetyl-CoA formation at […] nm. In kind it is biochemical. Particulars: 4 mM MgCl2, 50 mM Tris/HCl pH 8.1.

The target in data set [2] is T2, Kat (HemL-like), 3-aminobutyryl-CoA aminotransferase (Cloacimonas acidaminivorans (SeqCode), UniProt B0VH76).
T2 construct: full-length CDS in pEXP-5-NT/TOPO, E. coli; by primers starts (M)AEKLKLA, ends EVKKML
T2 sequence (B0VH76 1-414): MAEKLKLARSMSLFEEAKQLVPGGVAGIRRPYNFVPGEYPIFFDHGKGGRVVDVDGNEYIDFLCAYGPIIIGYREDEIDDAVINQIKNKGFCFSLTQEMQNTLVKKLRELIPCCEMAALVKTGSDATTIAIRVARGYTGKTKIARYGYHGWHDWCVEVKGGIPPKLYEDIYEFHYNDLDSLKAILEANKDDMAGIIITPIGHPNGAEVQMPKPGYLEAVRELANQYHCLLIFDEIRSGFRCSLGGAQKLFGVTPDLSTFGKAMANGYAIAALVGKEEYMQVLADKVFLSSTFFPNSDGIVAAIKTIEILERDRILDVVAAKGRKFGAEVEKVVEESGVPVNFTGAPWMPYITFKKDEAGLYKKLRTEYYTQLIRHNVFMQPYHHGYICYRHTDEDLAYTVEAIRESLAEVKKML
Nature of the data set: spectrophotometric, acetoacetyl-CoA formation at […] nm. In kind it is biochemical. To be noted: 25 µM (3S)-3-aminobutyryl-CoA; 50 mM Tris/HCl pH 8.1, 5 mM MgCl2.

Substrate in data set [3]: C[C@H](N)CC(=O)SCCNC(=O)CCNC(=O)[C@H](O)C(C)(C)COP(=O)(O)OP(=O)(O)OC[C@H]1O[C@@H](n2cnc3c(N)ncnc32)[C@H](O)[C@@H]1OP(=O)(O)O
Nature of the data set: purified protein. In kind it is biochemical, Cloacimonas acidaminivorans (SeqCode). Particulars: 50 mM α-ketoglutarate, 50 mM Tris/HCl pH 8.1, 5 mM MgCl2.

Substrate in data set [4]: O=C(O)CCC(=O)C(=O)O
Nature of the data set: purified protein. In kind it is biochemical, Cloacimonas acidaminivorans (SeqCode). Particulars: 25 µM (3S)-3-aminobutyryl-CoA, 50 mM Tris/HCl pH 8.1, 5 mM MgCl2.

For orientation: kcat means the number of substrate molecules converted per active site and unit of time at saturation. The kcat/Km is the second-order rate constant that governs catalysis at low substrate concentration.

Consider `CC(=O)CC(=O)O` [acetoacetate], for which the “CoA transferase assay, acetoacetyl-CoA formation at 310 nm” value in data set [1] (acetyl-CoA as CoA donor) was “formation in vitro of acetoacetyl-CoA and acetate from acetoacetate and acetyl-CoA”.

On to `CC(=O)SCCNC(=O)CCNC(=O)[C@H](O)C(C)(C)COP(=O)(O)OP(=O)(O)OC[C@H]1O[C@@H](n2cnc3c(N)ncnc32)[C@H](O)[C@@H]1OP(=O)(O)O` [acetyl-CoA], for which, in data set [1] (10 mM acetoacetate), the “CoA transferase assay, acetoacetyl-CoA formation at 310 nm” value was “formation in vitro of acetoacetyl-CoA and acetate from acetoacetate and acetyl-CoA”.

Consider `CC(=O)C(=O)O` [pyruvate], for which the “K m (M)” value in data set [2] is 20.1±1.3 10^−3 M.

B1: Kat (HemL-like), 3-aminobutyryl-CoA aminotransferase (Candidatus Cloacimonas acidaminivorans str. Evry) (protein)
chain: MAEKLKLARSMSLFEEAKQLVPGGVAGIRRPYNFVPGEYPIFFDHGKGGRVVDVDGNEYIDFLCAYGPIIIGYREDEIDDAVINQIKNKGFCFSLTQEMQNTLVKKLRELIPCCEMAALVKTGSDATTIAIRVARGYTGKTKIARYGYHGWHDWCVEVKGGIPPKLYEDIYEFHYNDLDSLKAILEANKDDMAGIIITPIGHPNGAEVQMPKPGYLEAVRELANQYHCLLIFDEIRSGFRCSLGGAQKLFGVTPDLSTFGKAMANGYAIAALVGKEEYMQVLADKVFLSSTFFPNSDGIVAAIKTIEILERDRILDVVAAKGRKFGAEVEKVVEESGVPVNFTGAPWMPYITFKKDEAGLYKKLRTEYYTQLIRHNVFMQPYHHGYICYRHTDEDLAYTVEAIRESLAEVKKML
notes: full-length CDS in pEXP-5-NT/TOPO, E. coli; by primers starts (M)AEKLKLA, ends EVKKML
As for B1, in data set [3], the kcat worked out at 1.8 ± 0.2 s⁻¹ and the kcat/Km came to 420000 M⁻¹ s⁻¹. Further, in data set [4], the kcat is 1.8 ± 0.1 s⁻¹ and the kcat/Km came out at 620 M⁻¹ s⁻¹.

The record behind these values is paper PMC3149608, “A Novel Acyl-CoA Beta-Transaminase Characterized from a Metagenome” (PLoS ONE, 2011).
